In patent US20240392004A1 (IMMUNOWAKE, published 2024):

Tests used:
Assay in all cases: cell-based or functional assay
[1] = target: human PD-1 on cells (HEK-PD-1 reporter cells; activated PBMC) (human, UniProt Q15116 25-288)
[2] = target: T1, human IL-12 receptor complex (IL-12Rβ1 and IL-12Rβ2) (human, UniProt P42701 24-662; Q99665 24-862)
[3] = target: T1, human IL-12 receptor complex (IL-12Rβ1 …); remark: listed apart in the source
[4] = target: T2, human IL-2 receptor (IL-2Rα, IL-2Rβ, IL-2Rγ) (human, UniProt P01589 22-272; P14784 27-551; P31785 23-369)
T2 sequence (looked up) 1: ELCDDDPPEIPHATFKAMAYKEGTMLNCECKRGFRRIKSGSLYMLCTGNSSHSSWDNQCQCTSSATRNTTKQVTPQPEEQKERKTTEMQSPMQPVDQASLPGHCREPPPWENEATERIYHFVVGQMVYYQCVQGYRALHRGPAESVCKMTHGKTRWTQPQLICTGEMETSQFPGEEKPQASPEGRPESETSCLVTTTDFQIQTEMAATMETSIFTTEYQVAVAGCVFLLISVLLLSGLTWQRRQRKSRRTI
T2 sequence (looked up) 2: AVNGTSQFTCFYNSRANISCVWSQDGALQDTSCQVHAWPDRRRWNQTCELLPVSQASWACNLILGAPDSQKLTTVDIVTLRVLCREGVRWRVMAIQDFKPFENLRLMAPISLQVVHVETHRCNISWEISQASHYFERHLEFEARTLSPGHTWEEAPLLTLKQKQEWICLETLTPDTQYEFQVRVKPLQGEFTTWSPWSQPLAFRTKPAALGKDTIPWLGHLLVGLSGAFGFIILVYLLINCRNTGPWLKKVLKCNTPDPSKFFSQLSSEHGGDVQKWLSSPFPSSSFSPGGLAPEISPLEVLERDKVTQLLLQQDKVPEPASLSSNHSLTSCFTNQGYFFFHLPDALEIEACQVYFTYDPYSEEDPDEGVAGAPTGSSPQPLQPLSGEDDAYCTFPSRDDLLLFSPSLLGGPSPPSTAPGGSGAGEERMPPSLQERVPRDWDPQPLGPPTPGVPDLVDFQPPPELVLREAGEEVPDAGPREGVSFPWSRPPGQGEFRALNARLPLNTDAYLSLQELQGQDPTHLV
T2 sequence (looked up) 3: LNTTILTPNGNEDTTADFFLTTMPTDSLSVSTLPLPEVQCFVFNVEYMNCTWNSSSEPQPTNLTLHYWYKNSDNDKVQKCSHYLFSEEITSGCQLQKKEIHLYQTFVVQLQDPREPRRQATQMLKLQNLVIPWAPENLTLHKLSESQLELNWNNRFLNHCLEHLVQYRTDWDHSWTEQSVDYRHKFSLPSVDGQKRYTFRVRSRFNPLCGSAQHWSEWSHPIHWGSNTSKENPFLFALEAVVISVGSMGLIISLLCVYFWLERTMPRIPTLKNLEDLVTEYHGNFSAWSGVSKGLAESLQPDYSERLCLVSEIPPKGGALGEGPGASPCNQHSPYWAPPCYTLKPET

[5] = target: T3, human TIGIT on HEK-Blue reporter cells (human, UniProt Q495A1 22-244)
T3 sequence (looked up): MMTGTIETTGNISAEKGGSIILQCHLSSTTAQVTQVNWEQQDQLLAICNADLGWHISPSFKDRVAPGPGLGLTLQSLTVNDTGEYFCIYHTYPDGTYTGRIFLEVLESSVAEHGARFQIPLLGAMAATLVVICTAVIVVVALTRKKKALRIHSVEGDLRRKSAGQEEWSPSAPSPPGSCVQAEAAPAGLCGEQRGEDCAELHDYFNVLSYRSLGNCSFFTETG

Chain of human PD-1 on cells (HEK-PD-1 reporter cells; activated PBMC) (Q15116 25-288): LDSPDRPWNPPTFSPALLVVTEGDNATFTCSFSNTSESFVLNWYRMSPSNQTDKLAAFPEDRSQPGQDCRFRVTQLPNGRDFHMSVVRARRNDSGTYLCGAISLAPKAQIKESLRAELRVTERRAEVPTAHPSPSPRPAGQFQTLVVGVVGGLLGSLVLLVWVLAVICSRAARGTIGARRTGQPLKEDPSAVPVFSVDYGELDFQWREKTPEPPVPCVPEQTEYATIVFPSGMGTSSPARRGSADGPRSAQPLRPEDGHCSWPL
T1 sequence (Q99665 24-862, chain 2 of 2, other chains not shown): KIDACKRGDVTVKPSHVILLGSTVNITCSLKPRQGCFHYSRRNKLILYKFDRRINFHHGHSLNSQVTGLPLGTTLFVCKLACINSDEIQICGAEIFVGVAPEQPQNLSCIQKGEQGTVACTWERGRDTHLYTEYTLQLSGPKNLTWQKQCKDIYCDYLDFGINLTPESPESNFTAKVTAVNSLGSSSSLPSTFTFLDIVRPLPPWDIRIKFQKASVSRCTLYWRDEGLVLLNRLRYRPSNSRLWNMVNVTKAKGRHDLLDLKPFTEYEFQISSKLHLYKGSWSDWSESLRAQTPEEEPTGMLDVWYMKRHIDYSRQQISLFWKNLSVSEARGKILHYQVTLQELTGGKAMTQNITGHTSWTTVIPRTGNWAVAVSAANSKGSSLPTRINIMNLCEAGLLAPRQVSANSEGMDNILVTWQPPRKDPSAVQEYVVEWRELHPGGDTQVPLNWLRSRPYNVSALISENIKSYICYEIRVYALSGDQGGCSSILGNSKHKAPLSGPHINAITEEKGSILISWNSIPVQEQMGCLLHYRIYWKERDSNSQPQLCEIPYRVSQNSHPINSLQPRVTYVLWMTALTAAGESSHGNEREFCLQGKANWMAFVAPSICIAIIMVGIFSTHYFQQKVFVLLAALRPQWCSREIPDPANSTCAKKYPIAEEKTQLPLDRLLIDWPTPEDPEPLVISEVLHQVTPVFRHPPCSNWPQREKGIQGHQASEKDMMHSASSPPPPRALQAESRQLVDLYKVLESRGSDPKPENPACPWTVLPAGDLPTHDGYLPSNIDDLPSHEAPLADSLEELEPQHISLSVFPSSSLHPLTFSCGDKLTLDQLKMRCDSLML

Binder | IFN-γ release, activated PBMC [1] | IL-12 signal transduction, HEK-IL-12-PD-1 (high) [1] | IL-12 signal transduction, HEK-IL-12-PD-1 (low) [1] | IL-12 signal transduction, HEK IL-12 [2] | IL-12 signal transduction, HEK-IL-12 [3] | IL-2 signal transduction, HEK-IL-2 [4] | IL-2 signal transduction, HEK-IL-2-TIGIT [5] | IL-12 signal transduction, HEK-IL-12-TIGIT [5]
IL-12(E59A/F60A)/anti-PD-1(N99A) (antibody) light: not shown heavy: not shown heavy (part 1 of 2): QVQLVESGGGVVQPGRSLRLDCKASGITFSNSGMHWVRQAPGKGLEWVAVIWYDGSKRYYADSVKGRFTISRDNSKNTLFLQMNSLRAEDTAVYYCATADDYWGQGTLVTVSSAS heavy (part 2 of 2): EPKSCDKTHTCPPCPAPEKKGGPSVFLFPPKPKDTLMISRTPEVTCVVVDVSHEDPEVKFNWYVDGVEVHNAKTKPREEQYNSTYRVVSVLTVLHQDWLNGKEYKCKVSNKALPAPIEKTISKAKGQPREPQVYVLPPSREEMTKNQVSLLCLVKGFYPSDIAVEWESNGQPENRYMTWPPVLDSDGSFFLYSKLTVDKSRWQQGNVFSCSVMHEALHNHYTQKSLSLSPGK | 12 ng/mL | 3% | < 0.2% | < 0.2% | – | – | – | –
IL-12(E59A/F60A)/anti-PD-1(N99M) (antibody) light: not shown heavy: not shown heavy (part 1 of 2): QVQLVESGGGVVQPGRSLRLDCKASGITFSNSGMHWVRQAPGKGLEWVAVIWYDGSKRYYADSVKGRFTISRDNSKNTLFLQMNSLRAEDTAVYYCATMDDYWGQGTLVTVSSAS heavy (part 2 of 2): EPKSCDKTHTCPPCPAPEKKGGPSVFLFPPKPKDTLMISRTPEVTCVVVDVSHEDPEVKFNWYVDGVEVHNAKTKPREEQYNSTYRVVSVLTVLHQDWLNGKEYKCKVSNKALPAPIEKTISKAKGQPREPQVYVLPPSREEMTKNQVSLLCLVKGFYPSDIAVEWESNGQPENRYMTWPPVLDSDGSFFLYSKLTVDKSRWQQGNVFSCSVMHEALHNHYTQKSLSLSPGK | 13 ng/mL | < 0.2% | < 0.2% | < 0.2% | – | – | – | –
IL-2(L18R/Q22E/R38D/K43E/E61R/Q126T)/CD155-Fc/IL-12(E59A/F60A) (Fc fusion) chain 1: WPPPGTGDVVVQAPTQVPGFLGDSVTLPCYLQVPNMEVTHVSQLTWARHGESGSMAVFHQTQGPSYSESKRLEFVAARLGAELRNASLRMFGLRVEDEGNYTCLFVTFPQGSRSVDIWLRVLAKPQNTAEVQKVQLTGEPVPMARCVSTGGRPPAQITWHSDLGGMPNTSQVPGFLSGTVTVTSLWILVPSSQVDGKNVTCKVEHESFEKPQLLTVNLTVYYPPEVSISGYDNNWYLGQNEATLTCDARSNPEPTGYNWSTTMGPLPPFAVAQGAQLLIRPVDKPINTTLICNVTNALGARQAELTVQVKEGPPSEHSGISRNGGGGSGGGDKTHTCPPCPAPEDEGGPSVFLFPPKPKDTLMISRTPEVTCVVVDVSHEDPEVKFNWYVDGVEVHNAKTKPREEQYNSTYRVVSVLTVLHQDWLNGKEYKCKVSNKALPAPIEKTISKAKGQPREPQVYVYPPSREEMTKNQVSLTCLVKGFYPSDIAVEWESNGQPENNYKTTPPVLDEDGSFALVSKLTVDKSRWQQGNVFSCSVMHEALHNHYTQKSLSLSPGKGGGGSGGGIWELKKDVYVVELDWYPDAPGEMVVLTCDTPEEDGITWTLDQSSEVLGSGKTLTIQVKAAGDAGQYTCHKGGEVLSHSLLLLHKKEDGIWSTDILKDQKEPKNKTFLRCEAKNYSGRFTCWWLTTISTDLTFSVKSSRGSSDPQGVTCGAATLSAERVRGDNKEYEYSVECQEDSACPAAEESLPIEVMVDAVHKLKYENYTSSFFIRDIIKPDPPKNLQLKPLKNSRQVEVSWEYPDTWSTPHSYFSLTFCVQVQGKSKREKKDRVFTDKTSATVICRKNASISVRAQDRYYSSSWSEWASVPCSGGGGSGGGSGGGGSRNLPVATPDPGMFPCLHHSQNLLRAVSNMLQKARQTLEFYPCTSEEIDHEDITKDKTSTVEACLPLELTKNESCLNSRETSFITNGSCLASRKTSFMMALCLSSIYEDLKMYQVEFKTMNAKLLMDPKRQIFLDQNMLAVIDELMQALNFNSETVPQKSSLEEPDFYKTKIKLCILLHAFRIRAVTIDRVMSYLNAS chain 2: WPPPGTGDVVVQAPTQVPGFLGDSVTLPCYLQVPNMEVTHVSQLTWARHGESGSMAVFHQTQGPSYSESKRLEFVAARLGAELRNASLRMFGLRVEDEGNYTCLFVTFPQGSRSVDIWLRVLAKPQNTAEVQKVQLTGEPVPMARCVSTGGRPPAQITWHSDLGGMPNTSQVPGFLSGTVTVTSLWILVPSSQVDGKNVTCKVEHESFEKPQLLTVNLTVYYPPEVSISGYDNNWYLGQNEATLTCDARSNPEPTGYNWSTTMGPLPPFAVAQGAQLLIRPVDKPINTTLICNVTNALGARQAELTVQVKEGPPSEHSGISRNGGGSGAPTSSSTKKTQLQLEHLRLDLEMILNGINNYKNPKLTDMLTFEFYMPKKATELKHLQCLERELKPLEEVLNLAQSKNFHLRPRDLISNINVIVLELKGSETTFMCEYADETATIVEFLNRWITFCTSIISTLTGGGGSGGGDKTHTCPPCPAPEKKGGPSVFLFPPKPKDTLMISRTPEVTCVVVDVSHEDPEVKFNWYVDGVEVHNAKTKPREEQYNSTYRVVSVLTVLHQDWLNGKEYKCKVSNKALPAPIEKTISKAKGQPREPQVYVLPPSREEMTKNQVSLLCLVKGFYPSDIAVEWESNGQPENRYMTWPPVLDSDGSFFLYSKLTVDKSRWQQGNVFSCSVMHEALHNHYTQKSLSLSPGK | – | – | – | – | < 0.2% | 5% | 18% | 29%
IL-2(L18R/Q22E/R38D/K43E/E61R/Q126T/S130R)/CD155-Fc/IL-12(E59A/F60A) (Fc fusion) chain 1: WPPPGTGDVVVQAPTQVPGFLGDSVTLPCYLQVPNMEVTHVSQLTWARHGESGSMAVFHQTQGPSYSESKRLEFVAARLGAELRNASLRMFGLRVEDEGNYTCLFVTFPQGSRSVDIWLRVLAKPQNTAEVQKVQLTGEPVPMARCVSTGGRPPAQITWHSDLGGMPNTSQVPGFLSGTVTVTSLWILVPSSQVDGKNVTCKVEHESFEKPQLLTVNLTVYYPPEVSISGYDNNWYLGQNEATLTCDARSNPEPTGYNWSTTMGPLPPFAVAQGAQLLIRPVDKPINTTLICNVTNALGARQAELTVQVKEGPPSEHSGISRNGGGGSGGGDKTHTCPPCPAPEDEGGPSVFLFPPKPKDTLMISRTPEVTCVVVDVSHEDPEVKFNWYVDGVEVHNAKTKPREEQYNSTYRVVSVLTVLHQDWLNGKEYKCKVSNKALPAPIEKTISKAKGQPREPQVYVYPPSREEMTKNQVSLTCLVKGFYPSDIAVEWESNGQPENNYKTTPPVLDEDGSFALVSKLTVDKSRWQQGNVFSCSVMHEALHNHYTQKSLSLSPGKGGGGSGGGIWELKKDVYVVELDWYPDAPGEMVVLTCDTPEEDGITWTLDQSSEVLGSGKTLTIQVKAAGDAGQYTCHKGGEVLSHSLLLLHKKEDGIWSTDILKDQKEPKNKTFLRCEAKNYSGRFTCWWLTTISTDLTFSVKSSRGSSDPQGVTCGAATLSAERVRGDNKEYEYSVECQEDSACPAAEESLPIEVMVDAVHKLKYENYTSSFFIRDIIKPDPPKNLQLKPLKNSRQVEVSWEYPDTWSTPHSYFSLTFCVQVQGKSKREKKDRVFTDKTSATVICRKNASISVRAQDRYYSSSWSEWASVPCSGGGGSGGGSGGGGSRNLPVATPDPGMFPCLHHSQNLLRAVSNMLQKARQTLEFYPCTSEEIDHEDITKDKTSTVEACLPLELTKNESCLNSRETSFITNGSCLASRKTSFMMALCLSSIYEDLKMYQVEFKTMNAKLLMDPKRQIFLDQNMLAVIDELMQALNFNSETVPQKSSLEEPDFYKTKIKLCILLHAFRIRAVTIDRVMSYLNAS chain 2: WPPPGTGDVVVQAPTQVPGFLGDSVTLPCYLQVPNMEVTHVSQLTWARHGESGSMAVFHQTQGPSYSESKRLEFVAARLGAELRNASLRMFGLRVEDEGNYTCLFVTFPQGSRSVDIWLRVLAKPQNTAEVQKVQLTGEPVPMARCVSTGGRPPAQITWHSDLGGMPNTSQVPGFLSGTVTVTSLWILVPSSQVDGKNVTCKVEHESFEKPQLLTVNLTVYYPPEVSISGYDNNWYLGQNEATLTCDARSNPEPTGYNWSTTMGPLPPFAVAQGAQLLIRPVDKPINTTLICNVTNALGARQAELTVQVKEGPPSEHSGISRNGGGSGAPTSSSTKKTQLQLEHLRLDLEMILNGINNYKNPKLTDMLTFEFYMPKKATELKHLQCLERELKPLEEVLNLAQSKNFHLRPRDLISNINVIVLELKGSETTFMCEYADETATIVEFLNRWITFCTSIIRTLTGGGGSGGGDKTHTCPPCPAPEKKGGPSVFLFPPKPKDTLMISRTPEVTCVVVDVSHEDPEVKFNWYVDGVEVHNAKTKPREEQYNSTYRVVSVLTVLHQDWLNGKEYKCKVSNKALPAPIEKTISKAKGQPREPQVYVLPPSREEMTKNQVSLLCLVKGFYPSDIAVEWESNGQPENRYMTWPPVLDSDGSFFLYSKLTVDKSRWQQGNVFSCSVMHEALHNHYTQKSLSLSPGK | – | – | – | – | 3% | < 0.1% | < 0.1% | 24%
